Source: US20090053196

System: FLAG-tagged UNC-45 (UNC-45^FLAG)

^mycCHN-1^ΔU-box
in vitro ubiquitylation of UNC-45, Western blot: a CHN-1 version lacking the U-box, CHN-1^ΔU-box, was not able to ubiquitylate UNC-45
